Experimental findings from the Human Domainome abundance scans (Beltran et al. 2025) are described below.

To fix the notation:
B1: Death-inducer obliterator 1, residues 263 to 321; numbered along this chain, Q9BTC0 (parent)
chain: GYDPNALYCICRQPHNNRFMICCDRCEEWFHGDCVGISEARGRLLERNGEDYICPNCTI

± gives the uncertainty stated by the source.

The variants in the data set derive from B1. Put plainly: abundance fitness (aPCA) (normalised: wild type 0, dead -1); higher = more abundant; growth selection in yeast, the domain comes from the species named. The conditions noted are these: Homo sapiens.
In the case of GYDPNALYCICRQPHNNRFMICCDRCEEWFHGDCVGISEARGWLLERNGEDYICPNCTI, the abundance fitness was -0.132 ± 0.17.

Regarding GYDPNALYCICRQPHNNRFMICCDRCEEWFHGDCVGISEARGQLLERNGEDYICPNCTI, the abundance fitness was determined as 0.059 ± 0.14.

Regarding GYDPNALYCICRQPHNNRFMICCDRCEEWFHGDCVGISEARGCLLERNGEDYICPNCTI, the abundance fitness was 0.188 ± 0.13.

Consider GYDPNALYCICRQPHNNRFMICCDRCEEWFHGDCVGISEARGGLLERNGEDYICPNCTI, for which the abundance fitness was 0.103 ± 0.092.

GYDPNALYCICRQPHNNRFMICCDRCEEWFHGDCVGISEARGNLLERNGEDYICPNCTI: the abundance fitness came to 0.044 ± 0.2.

Take GYDPNALYCICRQPHNNRFMICCDRCEEWFHGDCVGISEARGFLLERNGEDYICPNCTI: the abundance fitness is -0.318 ± 0.097.

Turning to GYDPNALYCICRQPHNNRFMICCDRCEEWFHGDCVGISEARGSLLERNGEDYICPNCTI, the abundance fitness came out at 0.114 ± 0.059.

As for GYDPNALYCICRQPHNNRFMICCDRCEEWFHGDCVGISEARGLLLERNGEDYICPNCTI, the abundance fitness turned out to be 0.029 ± 0.064.

Consider GYDPNALYCICRQPHNNRFMICCDRCEEWFHGDCVGISEARGILLERNGEDYICPNCTI, for which the abundance fitness is 0.081 ± 0.095.

For the variant GYDPNALYCICRQPHNNRFMICCDRCEEWFHGDCVGISVARGRLLERNGEDYICPNCTI, the abundance fitness is -0.036 ± 0.061.

Regarding GYDPNALYCICRQPHNNRFMICCDRCEEWFHGDCVGISSARGRLLERNGEDYICPNCTI, the abundance fitness is -0.061 ± 0.066.

As to GYDPNALYCICRQPHNNRFMICCDRCEEWFHGDCVGISTARGRLLERNGEDYICPNCTI, the abundance fitness was -0.213 ± 0.08.

On to GYDPNALYCICRQPHNNRFMICCDRCEEWFHGDCVGISYARGRLLERNGEDYICPNCTI, for which the abundance fitness is -0.22 ± 0.098.

In the case of GYDPNALYCICRQPHNNRFMICCDRCEEWFHGDCVGISWARGRLLERNGEDYICPNCTI, the abundance fitness is -0.143 ± 0.1.

For GYDPNALYCICRQPHNNRFMICCDRCEEWFHGDCVGISERRGRLLERNGEDYICPNCTI, the abundance fitness is -0.205 ± 0.093.

Turning to GYDPNALYCICRQPHNNRFMICCDRCEEWFHGDCVGISEDRGRLLERNGEDYICPNCTI, the abundance fitness was -0.019 ± 0.071.

GYDPNALYCICRQPHNNRFMICCDRCEEWFHGDCVGISEQRGRLLERNGEDYICPNCTI: the abundance fitness was -0.315 ± 0.14.

GYDPNALYCICRQPHNNRFMICCDRCEEWFHGDCVGISEMRGRLLERNGEDYICPNCTI: the abundance fitness is 0.004 ± 0.082.

Take GYDPNALYCICRQPHNNRFMICCDRCEEWFHGDCVGISEHRGRLLERNGEDYICPNCTI: the abundance fitness is -0.182 ± 0.25.

As for GYDPNALYCICRQPHNNRFMICCDRCEEWFHGDCVGISELRGRLLERNGEDYICPNCTI, the abundance fitness worked out at 0.043 ± 0.05.

As for GYDPNALYCICRQPHNNRFMICCDRCEEWFHGDCVGISEVRGRLLERNGEDYICPNCTI, the abundance fitness was -0.146 ± 0.06.

In the case of GYDPNALYCICRQPHNNRFMICCDRCEEWFHGDCVGISEGRGRLLERNGEDYICPNCTI, the abundance fitness was -0.11 ± 0.068.

For GYDPNALYCICRQPHNNRFMICCDRCEEWFHGDCVGISETRGRLLERNGEDYICPNCTI, the abundance fitness was -0.077 ± 0.085.

Regarding GYDPNALYCICRQPHNNRFMICCDRCEEWFHGDCVGISEYRGRLLERNGEDYICPNCTI, the abundance fitness is -0.094 ± 0.12.

Consider GYDPNALYCICRQPHNNRFMICCDRCEEWFHGDCVGISECRGRLLERNGEDYICPNCTI, for which the abundance fitness was found to be 0.151 ± 0.1.

Consider GYDPNALYCICRQPHNNRFMICCDRCEEWFHGDCVGISEPRGRLLERNGEDYICPNCTI, for which the abundance fitness was -0.143 ± 0.11.

Regarding GYDPNALYCICRQPHNNRFMICCDRCEEWFHGDCVGISENRGRLLERNGEDYICPNCTI, the abundance fitness was -0.434 ± 0.28.

With GYDPNALYCICRQPHNNRFMICCDRCEEWFHGDCVGISESRGRLLERNGEDYICPNCTI, the abundance fitness was -0.022 ± 0.084.

Regarding GYDPNALYCICRQPHNNRFMICCDRCEEWFHGDCVGISEFRGRLLERNGEDYICPNCTI, the abundance fitness is -0.262 ± 0.086.

For the variant GYDPNALYCICRQPHNNRFMICCDRCEEWFHGDCVGISEWRGRLLERNGEDYICPNCTI, the abundance fitness is -0.193 ± 0.07.

In the case of GYDPNALYCICRQPHNNRFMICCDRCEEWFHGDCVGISEARGRFLERNGEDYICPNCTI, the abundance fitness came to 0.097 ± 0.067.

In the case of GYDPNALYCICRQPHNNRFMICCDRCEEWFHGDCVGISEARGRDLERNGEDYICPNCTI, the abundance fitness is -0.063 ± 0.085.

GYDPNALYCICRQPHNNRFMICCDRCEEWFHGDCVGISEARGRRLERNGEDYICPNCTI: the abundance fitness was 0.08 ± 0.049.

Consider GYDPNALYCICRQPHNNRFMICCDRCEEWFHGDCVGISEARGRCLERNGEDYICPNCTI, for which the abundance fitness was -0.026 ± 0.065.

Consider GYDPNALYCICRQPHNNRFMICCDRCEEWFHGDCVGISEARGRSLERNGEDYICPNCTI, for which the abundance fitness was determined as 0.021 ± 0.056.

Take GYDPNALYCICRQPHNNRFMICCDRCEEWFHGDCVGISEARGRKLERNGEDYICPNCTI: the abundance fitness turned out to be 0.048 ± 0.079.

Regarding GYDPNALYCICRQPHNNRFMICCDRCEEWFHGDCVGISEARGRHLERNGEDYICPNCTI, the abundance fitness was 0.108 ± 0.15.

In the case of GYDPNALYCICRQPHNNRFMICCDRCEEWFHGDCVGISEARGRILERNGEDYICPNCTI, the abundance fitness was -0.238 ± 0.12.

For the variant GYDPNALYCICRQPHNNRFMICCDRCEEWFHGDCVGISEARGRGLERNGEDYICPNCTI, the abundance fitness amounted to 0.08 ± 0.061.

For GYDPNALYCICRQPHNNRFMICCDRCEEWFHGDCVGISEARGRQLERNGEDYICPNCTI, the abundance fitness was found to be 0.047 ± 0.081.

For the variant GYDPNALYCICRQPHNNRFMICCDRCEEWFHGDCVGISEARGRALERNGEDYICPNCTI, the abundance fitness was found to be 0.03 ± 0.058.

With GYDPNALYCICRQPHNNRFMICCDRCEEWFHGDCVGISEARGRPLERNGEDYICPNCTI, the abundance fitness turned out to be 0.092 ± 0.06.

With GYDPNALYCICRQPHNNRFMICCDRCEEWFHGDCVGISEARGRTLERNGEDYICPNCTI, the abundance fitness is -0.069 ± 0.11.

On to GYDPNALYCICRQPHNNRFMICCDRCEEWFHGDCVGISEARGRMLERNGEDYICPNCTI, for which the abundance fitness is 0.029 ± 0.14.

Take GYDPNALYCICRQPHNNRFMICCDRCEEWFHGDCVGISEARGRNLERNGEDYICPNCTI: the abundance fitness worked out at 0.121 ± 0.065.
